# Laboratory results taken from IntAct's records for PubMed 20223215.
# Target: lrp8_human LRP8 (UniProt Q14114)
# Chain of UniProt Q14114 (Q14114 whole entry): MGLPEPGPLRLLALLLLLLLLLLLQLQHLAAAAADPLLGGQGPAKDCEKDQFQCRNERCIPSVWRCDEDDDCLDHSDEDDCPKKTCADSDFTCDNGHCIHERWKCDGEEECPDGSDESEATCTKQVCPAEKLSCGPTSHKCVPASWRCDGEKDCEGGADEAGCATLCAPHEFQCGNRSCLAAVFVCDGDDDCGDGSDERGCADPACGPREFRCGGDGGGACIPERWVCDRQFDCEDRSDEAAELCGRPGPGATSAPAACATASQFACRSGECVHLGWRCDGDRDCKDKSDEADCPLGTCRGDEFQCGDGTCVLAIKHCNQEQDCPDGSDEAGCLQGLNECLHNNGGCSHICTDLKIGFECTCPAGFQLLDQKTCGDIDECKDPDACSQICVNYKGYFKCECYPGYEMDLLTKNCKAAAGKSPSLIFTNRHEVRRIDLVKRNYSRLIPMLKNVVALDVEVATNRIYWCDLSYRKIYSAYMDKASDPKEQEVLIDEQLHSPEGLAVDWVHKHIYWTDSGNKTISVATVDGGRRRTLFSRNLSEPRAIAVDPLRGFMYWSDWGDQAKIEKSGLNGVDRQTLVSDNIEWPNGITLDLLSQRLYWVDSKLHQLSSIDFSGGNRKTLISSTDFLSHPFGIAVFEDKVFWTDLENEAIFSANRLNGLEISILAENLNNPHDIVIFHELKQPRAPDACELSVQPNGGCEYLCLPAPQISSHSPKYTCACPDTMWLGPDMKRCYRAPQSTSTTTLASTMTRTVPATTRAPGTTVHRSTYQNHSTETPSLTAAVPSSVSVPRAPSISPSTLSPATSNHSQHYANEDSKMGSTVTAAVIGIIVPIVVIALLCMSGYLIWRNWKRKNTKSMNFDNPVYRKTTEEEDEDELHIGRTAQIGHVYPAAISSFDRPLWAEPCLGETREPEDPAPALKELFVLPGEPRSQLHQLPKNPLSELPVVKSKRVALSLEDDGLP
row,effect of a mutation on the interaction,Substance
1,disrupting interaction strength,"Reelin (Mus musculus), Q60841 K2467A"
2,disrupting interaction,"Reelin (Mus musculus), Q60841 K2360A"
3,disrupting interaction strength,"Reelin (Mus musculus), Q60841 K2467R"
